Results: patent US20190153410A1 (NOVOZYMES A S, published 2019)

Legend:
[1] = molecular target: T1, Rhizomucor miehei lipase (RmL) mature protein (Rhizomucor miehei, UniProt P19515 95-363); assay: cell-based or functional assay
T1 sequence: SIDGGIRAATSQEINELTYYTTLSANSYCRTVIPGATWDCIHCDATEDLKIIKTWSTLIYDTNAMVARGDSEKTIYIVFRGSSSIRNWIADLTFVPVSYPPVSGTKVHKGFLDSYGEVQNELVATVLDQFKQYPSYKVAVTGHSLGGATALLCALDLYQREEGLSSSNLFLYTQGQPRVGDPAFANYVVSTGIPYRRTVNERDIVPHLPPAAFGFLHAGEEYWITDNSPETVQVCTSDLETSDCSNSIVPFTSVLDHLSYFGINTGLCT

Lipex (SEQ ID NO: 5) = molecular target: T2, Lipex (SEQ ID NO: 5) (Thermomyces lanuginosus (Thermophilic …, UniProt O59952 23-291)); assay: cell-based or functional assay
T2 chain: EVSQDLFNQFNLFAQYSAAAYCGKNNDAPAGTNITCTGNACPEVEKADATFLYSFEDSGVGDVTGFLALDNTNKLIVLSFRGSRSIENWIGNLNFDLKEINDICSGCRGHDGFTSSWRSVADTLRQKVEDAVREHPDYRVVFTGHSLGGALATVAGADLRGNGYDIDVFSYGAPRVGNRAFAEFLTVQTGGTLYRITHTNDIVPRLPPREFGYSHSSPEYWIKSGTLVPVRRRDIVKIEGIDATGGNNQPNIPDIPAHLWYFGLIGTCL

[2] = molecular target: T3, MuciLip2CN (SEQ ID NO: 6); assay: cell-based or functional assay
T3 chain: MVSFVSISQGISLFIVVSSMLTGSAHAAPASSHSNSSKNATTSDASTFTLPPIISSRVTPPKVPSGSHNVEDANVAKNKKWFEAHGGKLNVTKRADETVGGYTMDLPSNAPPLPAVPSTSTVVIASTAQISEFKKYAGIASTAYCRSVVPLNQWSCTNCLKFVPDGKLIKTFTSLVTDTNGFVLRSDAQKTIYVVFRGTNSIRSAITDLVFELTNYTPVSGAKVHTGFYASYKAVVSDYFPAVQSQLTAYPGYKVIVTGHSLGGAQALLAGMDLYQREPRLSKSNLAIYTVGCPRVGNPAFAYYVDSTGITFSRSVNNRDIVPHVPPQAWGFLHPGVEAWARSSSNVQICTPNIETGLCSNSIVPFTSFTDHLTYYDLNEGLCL

RhimiLip1 (SEQ ID NO: 7) = molecular target: T4, RhimiLip1 (SEQ ID NO: 7); assay: cell-based or functional assay
T4 chain: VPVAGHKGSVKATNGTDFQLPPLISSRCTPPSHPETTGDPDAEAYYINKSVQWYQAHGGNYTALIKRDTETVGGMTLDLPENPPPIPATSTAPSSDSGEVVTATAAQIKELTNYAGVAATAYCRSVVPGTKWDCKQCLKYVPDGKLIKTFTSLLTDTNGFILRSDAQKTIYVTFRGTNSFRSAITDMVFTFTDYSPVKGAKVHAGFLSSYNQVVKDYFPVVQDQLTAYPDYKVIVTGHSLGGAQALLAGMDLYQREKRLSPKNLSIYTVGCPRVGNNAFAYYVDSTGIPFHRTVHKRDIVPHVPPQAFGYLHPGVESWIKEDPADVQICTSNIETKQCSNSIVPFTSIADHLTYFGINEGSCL

[3] = molecular target: T5, propeptide of Rhizomucor miehei lipase (RmL propeptide)
T5 chain: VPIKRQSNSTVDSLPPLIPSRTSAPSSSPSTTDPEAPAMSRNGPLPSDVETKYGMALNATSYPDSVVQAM

| Binder | RP(wash) with inhibitor, AMSA, propeptide:lipase 320:1 (normalized to no inhibitor = 1.00) [1] | RP(wash) with inhibitor, AMSA, propeptide:lipase 320:1 (normalized to no inhibitor = 1.00) (Lipex (SEQ ID NO: 5)) | RP(wash) with inhibitor, AMSA, propeptide:lipase 320:1 (normalized to no inhibitor = 1.00) [2] | RP(wash) with inhibitor, AMSA, propeptide:lipase 320:1 (normalized to no inhibitor = 1.00) (RhimiLip1 (SEQ ID NO: 7)) | hydrolytic activity on p-nitrophenyl acyl esters (C3, C6, C10, C12, C16), release of p-nitrophenol at 405 nm [3] |
| --- | --- | --- | --- | --- | --- |
| propeptide of Rhizomucor miehei lipase (RmL propeptide) (peptide) peptide: VPIKRQSNSTVDSLPPLIPSRTSAPSSSPSTTDPEAPAMSRNGPLPSDVETKYGMALNATSYPDSVVQAM | 0.02 | 0.89 | 1.1 | 0.92 |  |
| Rhizomucor miehei lipase (RmL) mature protein (protein) SIDGGIRAATSQEINELTYYTTLSANSYCRTVIPGATWDCIHCDATEDLKIIKTWSTLIYDTNAMVARGDSEKTIYIVFRGSSSIRNWIADLTFVPVSYPPVSGTKVHKGFLDSYGEVQNELVATVLDQFKQYPSYKVAVTGHSLGGATALLCALDLYQREEGLSSSNLFLYTQGQPRVGDPAFANYVVSTGIPYRRTVNERDIVPHLPPAAFGFLHAGEEYWITDNSPETVQVCTSDLETSDCSNSIVPFTSVLDHLSYFGINTGLCT |  |  |  |  | RmL with the propeptide bound showed no activity at any of the conditions tested |
